Results reported in US20240252614A1.

How the values were obtained:
Conditions in all cases: remark: other sources report otherwise
hMPV088 (hMPV A), Q6WB98 = assay: BLI, 58C stress
hMPV089 (hMPV A), Q6WB98 = assay: BLI, 58C stress
hMPV097 (hMPV A), Q6WB98 = assay: BLI, 58C stress
hMPV085 (hMPV A), Q6WB98 = assay: BLI, 58C stress
[1] = molecular target: hMPV A F WT Control (hMPV A), Q6WB98; assay: BLI, 58C stress
hMPV079 (hMPV A), Q6WB98 = assay: BLI, 58C stress
hMPV081 (hMPV A), Q6WB98 = assay: BLI, 58C stress
hMPV078 (hMPV A), Q6WB98 = assay: BLI, 58C stress
hMPV087 (hMPV A), Q6WB98 = assay: BLI, 58C stress
hMPV084 (hMPV A), Q6WB98 = assay: BLI, 58C stress
hMPV086 (hMPV A), Q6WB98 = assay: BLI, 58C stress
hMPV082 (hMPV A), Q6WB98 = assay: BLI, 58C stress
hMPV090 (hMPV A), Q6WB98 = assay: BLI, 58C stress
hMPV083 (hMPV A), Q6WB98 = assay: BLI, 58C stress
[2] = molecular target: hMPV A F WT Control (hMPV A), Q6WB98; assay: BLI, 68C stress
hMPV080 (hMPV A), Q6WB98 [3] = assay: BLI, 68C stress
hMPV080 (hMPV A), Q6WB98 [4] = assay: BLI, 53C stress
hMPV071 (hMPV A), Q6WB98 = assay: BLI, 53C stress
hMPV059 (hMPV A), Q6WB98 = assay: BLI, 53C stress
hMPV077 (hMPV A), Q6WB98 = assay: BLI, 53C stress
hMPV045 (hMPV A), Q6WB98 = assay: BLI, 53C stress
hMPV075 (hMPV A), Q6WB98 = assay: BLI, 53C stress
hMPV068 (hMPV A), Q6WB98 = assay: BLI, 53C stress
[5] = molecular target: hMPV A F WT Control (hMPV A), Q6WB98; assay: BLI, 53C stress
hMPV055 (hMPV A), Q6WB98 = assay: BLI, 53C stress
hMPV049 (hMPV A), Q6WB98 = assay: BLI, 53C stress
hMPV050 (hMPV A), Q6WB98 = assay: BLI, 53C stress
hMPV060 (hMPV A), Q6WB98 = assay: BLI, 53C stress
hMPV044 (hMPV A), Q6WB98 = assay: BLI, 53C stress
hMPV067 (hMPV A), Q6WB98 = assay: BLI, 53C stress
hMPV066 (hMPV A), Q6WB98 = assay: BLI, 53C stress
hMPV053 (hMPV A), Q6WB98 = assay: BLI, 53C stress
hMPV058 (hMPV A), Q6WB98 = assay: BLI, 53C stress
hMPV048 (hMPV A), Q6WB98 = assay: BLI, 53C stress
hMPV047 (hMPV A), Q6WB98 = assay: BLI, 53C stress
hMPV052 (hMPV A), Q6WB98 = assay: BLI, 53C stress
hMPV062 (hMPV A), Q6WB98 = assay: BLI, 53C stress
hMPV061 (hMPV A), Q6WB98 = assay: BLI, 53C stress
hMPV043 (hMPV A), Q6WB98 = assay: BLI, 53C stress
hMPV063 (hMPV A), Q6WB98 = assay: BLI, 53C stress
hMPV046 (hMPV A), Q6WB98 = assay: BLI, 53C stress
hMPV054 (hMPV A), Q6WB98 = assay: BLI, 53C stress
hMPV069 (hMPV A), Q6WB98 = assay: BLI, 53C stress

B1: MPE8 mAb (antibody, V domains shown)
VH: EVQLVESGGGLVKPGGSLRLSCAASGFTFSSYSMNWVRQAPGKGLEWVSSISASSSYSDYADSAKGRFTISRDNAKTSLFLQMNSLRAEDTAIYFCARARATGYSSITPYFDIWGQGTLVTVSS
VL: QSVVTQTPSVSGAPGQRVTISCTGSSSNIGAGYDVHWYQQLPGTAPKLLIYDNNNRPSGVPDRFSASKSGTSASLAITGLQAEDEADYYCQSYDRNLSGVFGTGTKVTVL
- Response Shift (hMPV088 (hMPV A), Q6WB98): 0.812 nm
- Response Shift (hMPV089 (hMPV A), Q6WB98): 0.917 nm
- Response Shift (hMPV097 (hMPV A), Q6WB98): 0.918 nm
- Response Shift (hMPV085 (hMPV A), Q6WB98): 0.757 nm
- Response Shift [1]: 0.006 nm
- Response Shift (hMPV079 (hMPV A), Q6WB98): 0.867 nm
- Response Shift (hMPV081 (hMPV A), Q6WB98): 0.945 nm
- Response Shift (hMPV078 (hMPV A), Q6WB98): 0.939 nm
- Response Shift (hMPV087 (hMPV A), Q6WB98): 0.805 nm
- Response Shift (hMPV084 (hMPV A), Q6WB98): 0.665 nm
- Response Shift (hMPV086 (hMPV A), Q6WB98): 0.736 nm
- Response Shift (hMPV082 (hMPV A), Q6WB98): 0.928 nm
- Response Shift (hMPV090 (hMPV A), Q6WB98): 0.906 nm
- Response Shift (hMPV083 (hMPV A), Q6WB98): 0.768 nm
- Response Shift [2]: 0.025 nm
- Response Shift (hMPV080 (hMPV A), Q6WB98 [3]): -0.075 nm
- Response Shift (hMPV080 (hMPV A), Q6WB98 [4]): 0.798 nm
- Response Shift (hMPV071 (hMPV A), Q6WB98): -0.039 nm
- Response Shift (hMPV059 (hMPV A), Q6WB98): -0.039 nm
- Response Shift (hMPV077 (hMPV A), Q6WB98): -0.041 nm
- Response Shift (hMPV045 (hMPV A), Q6WB98): -0.025 nm
- Response Shift (hMPV075 (hMPV A), Q6WB98): -0.069 nm
- Response Shift (hMPV068 (hMPV A), Q6WB98): 0.002 nm
- Response Shift [5]: -0.017 nm
- Response Shift (hMPV055 (hMPV A), Q6WB98): -0.078 nm
- Response Shift (hMPV049 (hMPV A), Q6WB98): -0.065 nm
- Response Shift (hMPV050 (hMPV A), Q6WB98): -0.014 nm
- Response Shift (hMPV060 (hMPV A), Q6WB98): -0.06 nm
- Response Shift (hMPV044 (hMPV A), Q6WB98): 0.534 nm
- Response Shift (hMPV067 (hMPV A), Q6WB98): -0.041 nm
- Response Shift (hMPV066 (hMPV A), Q6WB98): -0.003 nm
- Response Shift (hMPV053 (hMPV A), Q6WB98): -0.032 nm
- Response Shift (hMPV058 (hMPV A), Q6WB98): -0.05 nm
- Response Shift (hMPV048 (hMPV A), Q6WB98): -0.056 nm
- Response Shift (hMPV047 (hMPV A), Q6WB98): -0.051 nm
- Response Shift (hMPV052 (hMPV A), Q6WB98): -0.045 nm
- Response Shift (hMPV062 (hMPV A), Q6WB98): 0.006 nm
- Response Shift (hMPV061 (hMPV A), Q6WB98): -0.059 nm
- Response Shift (hMPV043 (hMPV A), Q6WB98): 0.01 nm
- Response Shift (hMPV063 (hMPV A), Q6WB98): -0.008 nm
- Response Shift (hMPV046 (hMPV A), Q6WB98): -0.012 nm
- Response Shift (hMPV054 (hMPV A), Q6WB98): -0.064 nm
- Response Shift (hMPV069 (hMPV A), Q6WB98): -0.003 nm
